Experimental findings from the DeepSol protein solubility set are described below.

The nature of the data set: soluble on expression in E. coli; label from the status in PepcDB or PDB records.
Turning to “MGLLVLGTPLDWPESKKYCDYVRENGIMQFLHMYDTYISKKQDVLLWGDEIECIVVSMDDKSKKARVSLRQEDILNALGKYEETFRHVDFGPVYAALRNETCPKKIDAILSEVAKNPADYVERIGGNSNKDTIEITSSTKPHAQNAVPTFHPEYGRYMLESTPGAPYGSTLKDFTFVEYNMRLRRKIIENHLLPNELPLTITNFFRLGTPGFTDPEVEANGAISRSFFLPDDVINTHVRFPTLTANIRQRRGRKVAMNVPIFFDKNTIKPFHDPTVPWDRNLFPEDANARDGAALDNHIYMDSMGFGMGCCCLQITFQAKSCDEARLLYDQLTPITPLMLALSAGTPAFRGYLADQDCRWNVIAGAVDDRTEEEMKTVPKSRYDSVDLYISNDKRNLPEYNDVPVVINQDCYDKLIKDCIDERLAKHMAHIFSRDPLVIFSDSILQDNSVSNAHFENLNSTNWQSMRFKPPPPGSDIGWRVEFRSMEIQITDFENAAYSIFVVMLSRAILSFNLNLYMPISLVDENMKAAHARDAIHRKKFWFRCNPFPDASTDDESGQFRQLTIDELFNGEHRENGFPGLITIVRSYLYSCNPDAKTICLIERYIRLISQRANGQCLTAASWIRNFITTHPSYKQDSVVNDEINYDLIRRIAKIVDGDYDDTLLGKCS”, the “soluble on expression in E. coli” value is recorded as “soluble”.

With “MGLMHPRQLLTLPNGDVLVVEANSPGTVPITSPKQMIASIVKDRSGKGGKGGNRITLLRKAAGQSGKWEKYVFIENLHSPFGVQLIGDTLYVANTGNIMKYRYTPGETRMSDPGVEFTDLPSTVNHHWTKALLASPDGKKLYVGVGSNSNVAENGLDIEYRRATVLEVDVQSAASRIYASGIRNPTGLGWEPTTGKLWAIVNERDEIGADLVPDYLTSVQEGGFYGWPYSYYGQYVDQRVQPQRPDLVARAIRPDYALGSHVAPLGLWFYQGRNLPEKYHGGAFIGQHGSWNRIPLSGYDVVFVRFKDGKPEGVPEPVVTGFTSADQKTLKGAPVGLAEDAEGALLIADDVGNTIWRVTARGLEHHHHHH”, the “soluble on expression in E. coli” value was “not soluble”.

For the sequence “MGLYAISDLHLAFNLDKPMNIFGEEWSKHDEKIKKNWISKISEEDTVLIAGDISWSMDIENGEEDLNWIDCLPGKKIICKGNHDYWWKSITKLNNMYKSISFLQNNFFEYKDYAICGTRGWIDKSFDSFDEHDKKVYKREIIRLRLSLDAAVKKGYSKFIVMFHYPPFKDENSGSEFTEVLEEYKVEKAIYGHLHGPALKNISGSIVKNGVEYMLTSCDYIEFNPIKIDLKLEHHHHHH”, the “soluble on expression in E. coli” value is given as “soluble”.

For “MGMENYNPPQEPWLVILYQDDHIMVVNKPSGLLSVPGRLEEHKDSVMTRIQRDYPQAESVHRLDMATSGVIVVALTKAAERELKRQFREREPKKQYVARVWGHPSPAEGLVDLPLICDWPNRPKQKVCYETGKPAQTEYEVVEYAADNTARVVLKPITGRSHQLRVHMLALGHPILGDRFYASPEARAMAPRLLLHAEMLTITHPAYGNSMTFKAPADFLEHHHHHH”, the “soluble on expression in E. coli” value was “soluble”.

As for “MGMFERDTEIYLDRDALREDYQPENLVGRDTELNRYRAALQPVINGEQPNNIFLYGKTGVGKTAGTRYLIDHLEEDAAKYEDIDLTVKMLNCDGLSSSYQIATRLVNEFRDETSQISTTGYPRATVYDMLWTELDSCGGTIYIVLDEVDHIEDDSILYQLPRARANDNLSSAKIGIIGISNDFSFRDDLSPKVKSSLCEEEIQFPA”, the “soluble on expression in E. coli” value is recorded as “not soluble”.

“MGMIIMVGDGMGPAYTSAYRYFQDNPDTEEIEQTVFDRLLVGMASTYPARESGYVTDSAASATALATGFKSYNGAIAVDINKRPLTTIMQMAKARGMSTGVAVTAQVNHATPAAFLTHNESRKNYEAIAADMLKSDADVILGGGRKYFSEALVSQFSAKGYQHITELAQLDSITQPKVLGLFAEVQLPWVIDDTDANTLSKLTQKSLDLLSQNEKGFVLLVEGSLIDWAGHNNDIATAMAEMQGFANAIEVVEQYIRQHPDTLLVVTADHNTGGLSIGANGEYQWDTKLPKGISASPASIATHAIAADDWQAGVNQQLGFDVNSTELQQLTNARMQGKSTLEVALKKIIDTRSYTGWTTSGHTGVDVQVFAMGPAADLFKGNQDNTHIAEKMMSLLPKVN”: the “soluble on expression in E. coli” value was “soluble”.

For the sequence “MGNGMTKVLPGLYLGNFIDAKDLDQLGRNKITHIISIHESPQPLLQDITYLRIPVADTPEVPIKKHFKECINFIHCCRLNGGNCLVHCFAGISRSTTIVTAYVMTVTGLGWRDVLEAIKATRPIANPNPGFRQQLEEFGWASSQKLRRQLEERFGESPFRDEEELRALLPLCKRCRQGSATSASSAGPHSAASEGTVQRLVPRTPREAHRPLPLLARVKQTFSCLPRCLSRKGGK”, the “soluble on expression in E. coli” value is on record as “soluble”.

On to “MGNIKVTRDDWLNVAMDVLVSDGVEQVKVMNLAERMAVSRSSFYWYFKSRQDLLDALLAKWQATNTAGLIAQTELPAQTITGAVCNLFHCVVDPALFDTALDFAVRDWARRSGKVRRLLDLSDSRRLEALTAMFLRYDYSQIEAETRARVLYYMQIGYDLAQMNEPIDQRLSFVRHYLFVFTGVQARDEEVAAFSAFARGFWEGRRP”, for which the “soluble on expression in E. coli” value is “not soluble”.

As for “MGQLFSSPQSEHQDLASSFTEYFKKFKTGNKIISQDIITLVELSLAKGNIQEANSAIRNALKEIDSTPLNVAVTGESGSGKSSFINTLRGIGHEEKGAAKTGVVEETMERHPYKHPNMPNVVFWDLPGIGTQTFPPKTYLEKMKFYEYDFFIIISATRFKKNDIDLAKAISMMKKEFYFVRTKVDSDLNNEEDFKPQNFDREKVLQNIRLNCVNTFKENGIAEPQIFLVSNKNVCHYDFPVLIDRLISDLPLYKRQNFMLSLPNITESAIEKKQQFLKQSIWLEGFAPDLLSIKPSLAFLNSDLETLEKSMKFYRSVFGVDEASLKSLATAWKIPVDQVEAMMKSPAVFKPTDEETIQERLSRYVLEICFANRYLFRKNLFLRNVFYLKYYFLDMVTEDAKTLLKEIYLRNKLPSN”, the “soluble on expression in E. coli” value is recorded as “not soluble”.

As for “MGQTLFDKVWNRHVLYGKLGEPQLLYIDLHLIHEVTSPQAFEGLRLQNRKLRRPDLTFATLDHNVPTIDIFNIKDEIANKQITTLQKNAIDFGVHIFDMGSDEQGIVHMVGPETGLTQPGKTIVCGDSHTATHGAFGAIAFGIGTSEVEHVFATQTLWQTKPKN”, the “soluble on expression in E. coli” value is “not soluble”.

“MGRAAEVPGPEPGQQEQLVFGSGDAVELSCPPPGGGPMGPTVWVKDGTGLVPSERVLVGPQRLQVLNASHEDSGAYSCRQRLTQRVLCHFSVRVTDAPSSGDDEDGEDEAEDTGVDTGAPYWTRPERMDKKLLAVPAANTVRFRCPAAGNPTPSISWLKNGREFRGEHRIGGIKLRHQQWSLVMESVVPSDRGNYTCVVENKFGSIRQTYTLDVLERSPHRPILQAGLPANQTAVLGSDVEFHCKVYSDAQPHIQWLKHVEVNGSKVGPDGTPYVTVLKTAGANTTDKELEVLSLHNVTFEDAGEYTCLAGNSIGFSHHSAWLVVLPAEEELVE”: the “soluble on expression in E. coli” value is “soluble”.

For the sequence “MGREFLDLFEQWAESYDQSVEGYDEQYRDVFAGYDRILSTVADKAGQVVLEFGIGTGNLTKKLLERGKTVYGIEPSAPMRKKAAEKLGERAVIMDGDFLQFPLPPEPIDTIASTYAFHHLTDAEKDEAIAKYSQLLHSGGKIVFADTAFRDKEAFRQTVEAARARGFHDLADDLEREYYTTLDVLASLFANHGFSVSFAQQNAFVWVMEAVKQTTLEHHHHHH”, the “soluble on expression in E. coli” value is on record as “soluble”.

“MGRGSFTQIDTPDQVTERMRALLVKLESPAVTDLTATFSEPGIDVTPARLPDLYRGEPLTLSARMGQARGTLTLTGRIGGQPWQTQLHLDAAQDGTGIGKLWARAKIAEAETARLTGGLTAEAADAAILRLALDHGLTTRLTSLVAVDATPRRPAGMRLASTELPLNLPAGWDFETVFGTQDELEHHHHHH”: the “soluble on expression in E. coli” value is “not soluble”.

Turning to “MGRIKRGLDYFPMSTSFMHDRMVRRIMRREGDSAFATLVETLSYIYAGKGYYISVGDEFYEELVDSLYSTELDDVKRIISLSVEYGLFDAGLFRQYNILTSADIQRQYLFITKRRSSALIEPDYCLLESEEITSYRSSQSGKSSTDDSLDSECAEALNGDADHKTACTVTSSFDSVTMEDEIATSGTQNKRKQIKINQNKVNHLPNPPQGGDEGGKYLKSRTAVTQEDIDCLQPPCDGVQRNFQGLTDNLRLYKVPPSEQYAIILKSNFGAIGNPVWKGFNTIRGSNGKIRLPGHYLLSIIN”, the “soluble on expression in E. coli” value was “not soluble”.

For “MGRINELRMISRVAQMYFSEHKRQAEIAQHLNLSQATVSRMLKRAEAEGIVRTSIIPPPGTYSDLEAQLRERFDLPEAIVVDCSEDRDGAIMARIGEAAAHFLEVTLSQNEIIGVSSWSQTIFKMVENIHPLKGAKARYIVQTLGGMGDPSVQTHATQITTRLARLTEAEPKLLPVPGVATSREAKLLMLADPFVRETIDLFGSITLAIVGVGAVEPSELLARSGNIFSTKELADLAQAGAVGDISLRFFDKDGKPVKTPLDDRVIGLPLENLSNVDRVIALAGGLKKTEAIAGALRTGVIDVLVTDKFTAERLVGQET”, the “soluble on expression in E. coli” value was “soluble”.

As to “MGRQAMKKFVDVSHTIENGLITYKGLPAPIICDYLSREESRSFYEPGTEFQIGKIEMVTNTGTYIDVPFHRYADGKDLSEATVEQMAGLEGVVIPVDKHVKKIDVDVFKSADLHGKAVLIYTGWDEHWNTERYFEDHPYVTEEAANYLKEQKVALVGIDSHNIDDTSGKRRPVHTILLRADILIVEHLCKLGQLVDQSFLFYAVAPKFKGAGTFPVRAFAEIVLEHHHHHH”, the “soluble on expression in E. coli” value was “soluble”.

“MGRTQPCGGSCISSTYTLKKNRPCGWSAPPGSRILNQQPQGWPHNQTGCNVHKKIVVPSATDMATRFTQDSFVFDCLSMYYVIDDPWAENCLAAGVNATNVTFGTEQPWDIVLRDFDSGLEKIERSPYLALATNRQEIDAANKQGKLAVIIGTQGSAMVDLEFHRLRTMHRLGMRYFGLAYTGPTMFADGCGESRNAGLSFAGIELIDACNDLGLILDLSHVGHRSREETVARSRFPVCTHSNSYALNPNDRNTTDETARAIRAKGGIMGICGLPKTVHPENATLNELLDHADHWVKTIDAAHVGFGLDFVEAYKSDRSTMPAASRLWRTRRPDIFGTVEEFHLQDYPLGIASIKQLPNLTQGLFDRGYAEKEVAGIIGGNWLRHFTEVYG”: the “soluble on expression in E. coli” value is given as “not soluble”.

On to “MGRVFMVDLEGNIYICKLCKTHLSTDQDIMSKSFQCKNGRAYLFNNVVNVSVGEKEDRMMITGLHNVVDIFCVGCGSNVGWKYEFAHEKSQKYKEGKSVLELYKISGPHDSNDLVSDGDDA”, for which the “soluble on expression in E. coli” value was “not soluble”.

Turning to “MGSDKIHHHHHHAAGQPRLVKSLVPDMPSQAPDYFCTWNLQGYVASYKSTELTRAAMTEDYLFGDGLYQNWVDCYPAIRKDLYFVMDDSWDIPKDVNDSPNLYLGCVELSSDRFPSFRGDAVERLKQLSEQIKSKGWKGVGGWICAQKAETHAAIPEEEYWKQRIKAANAAGFDYWKVDWGKEDRNGEWRRKLTAIGKRYAPHLYIEHALRNEFIEFSDVFRTYDVENITAQPITIRRICDLLPYKTVEGAKGIINCEDEPYIAVGLGCAIGVMRHPFAETLPDGAQDFVFPPVGRDIKRRLDEVVRGVRWHRIAEPFAVGYGTFAIDSVKLTDHWILQENETWNKGRTVGADVTADAPARVARNMKLPEVSGAPLSVCPFVLASRYPNGAVAVSTIGRNVGREYVTEKVAVSISVDRWDIPIGLFGYFKEVTMVFPSPLKTGKHTVFAQDLAGENPVDITSNVVIKDNRLIIPGEVISRVGLMNASEGDCSDPGMVIRVM”, the “soluble on expression in E. coli” value was “not soluble”.

Consider “MGSDKIHHHHHHAAGSPEEDMEDRVRIDPVAGGYYPSISPSAQTRGATPDGETLKDRPIFLLEDGSTIRLVVYDDAKNLLEEYSKAYLVRNAGTSGSSLLYPCEVDDNGAVISSSSTPLYMKAGTYYFRILSPAKALNSKGFVNIGNGEYLLATDDRYTQTAMTAVTITKIDEGGTLNNVQTLYLPPIINQTARMQFTVRAGEGVHTLEMLAEGIEISGIQQPLDNTTSFDWVNGDVLPVKVGDQSASVRITQATRNADNSLVAHTGVLPTDARSHSISVLLNLKVNGNPTQYQMLLTGLYLTAGHSYNYTATVKISNGVTVLTWQNRSWTENVVMDK”, for which the “soluble on expression in E. coli” value is recorded as “not soluble”.
